How the values were obtained:
[1] = target: T1, RBD of hCoV-229E, P15423
T1 chain: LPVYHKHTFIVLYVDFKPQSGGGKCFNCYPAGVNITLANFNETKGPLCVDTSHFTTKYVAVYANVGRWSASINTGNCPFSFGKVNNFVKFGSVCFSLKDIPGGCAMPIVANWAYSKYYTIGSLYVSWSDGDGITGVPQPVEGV

[2] = target: RBD of SARS-CoV-2 (B lineage), P0DTC2

Row | Protein | disulfide bond cleavage activity (remaining rate of native RBD; maleimide-PEG 2k, SDS-PAGE) [1] | disulfide bond cleavage activity (remaining rate of native RBD; maleimide-PEG 2k, SDS-PAGE) [2]
1 | gene recombinant of human ERp72 (protein disulfide isomerase family A member 4) (protein) MGSSHHHHHHSSGLVPRGSHEGPDEDSSNRENAIEDEEEEEEEDDDEEEDDLEVKEENGVLVLNDANFDNFVADKDTVLLEFYAPWCGHCKQFAPEYEKIANILKDKDPPIPVAKIDATSASVLASRFDVSGYPTIKILKKGQAVDYEGSRTQEEIVAKVREVSQPDWTPPPEVTLVLTKENFDEVVNDADIILVEFYAPWCGHCKKLAPEYEKAAKELSKRSPPIPLAKVDATAETDLAKRFDVSGYPTLKIFRKGRPYDYNGPREKYGIVDYMIEQSGPPSKEILTLKQVQEFLKDGDDVIIIGVFKGESDPAYQQYQDAANNLREDYKFHHTFSTEIAKFLKVSQGQLVVMQPEKFQSKYEPRSHMMDVQGSTQDSAIKDFVLKYALPLVGHRKVSNDAKRYTRRPLVVVYYSVDFSFDYRAATQFWRSKVLEVAKDFPEYTFAIADEEDYAGEVKDLGLSESGEDVNAAILDESGKKFAMEPEEFDSDTLREFVTAFKKGKLKPVIKSQPVPKNNKGPVKVVVGKTFDSIVMDPKKDVLIEFYAPWCGHCKQLEPVYNSLAKKYKGQKGLVIAKMDATANDVPSDRYKVEGFPTIYFAPSGDKKNPVKFEGGDRDLEHLSKFIEEHATKLSRTKEEL | The order of the disulfide bond cleavage activity of the RBD of hCoV-229E from highest to lowest was PDI, ERp46, P5, Erp57, and ERp72. | The order of the disulfide bond cleavage activity of the RBD from highest to lowest was PDI, ERp46, P5, ERp72, and ERp57.
2 | gene recombinant of human ERp57 (protein disulfide-isomerase like protein ERp57) (protein) MGSSHHHHHHSSGLVPRGSHMLESDVLELTDDNFESRISDTGSAGLMLVEFFAPWCGHCKRLAPEYEAAATRLKGIVPLAKVDCTANTNTCNKYGVSGYPTLKIFRDGEEAGAYDGPRTADGIVSHLKKQAGPASVPLRTEEEFKKFISDKDASIVGFFDDSFSEAHSEFLKAASNLRDNYRFAHTNVESLVNEYDDNGEGIILFRPSHLTNKFEDKTVAYTEQKMTSGKIKKFIQENIFGICPHMTEDNKDLIQGKDLLIAYYDVDYEKNAKGSNYWRNRVMMVAKKFLDAGHKLNFAVASRKTFSHELSDFGLESTAGEIPVVAIRTAKGEKFVMQEEFSRDGKALERFLQDYFDGNLKRYLKSEPIPESNDGPVKVVVAENFDEIVNNENKDVLIEFYAPWCGHCKNLEPKYKELGEKLSKDPNIVIAKMDATANDVPSPYEVRGFPTIYFSPANKKLNPKKYEGGRELSDFISYLQREATNPPVIQEEKPKKKKKAQEDL | The order of the disulfide bond cleavage activity of the RBD of hCoV-229E from highest to lowest was PDI, ERp46, P5, Erp57, and ERp72. | The order of the disulfide bond cleavage activity of the RBD from highest to lowest was PDI, ERp46, P5, ERp72, and ERp57.
3 | gene recombinant of human P5 (protein disulfide isomerase family A member 6) (protein) MGSSHHHHHHSSGLVPRGSHMLYSSSDDVIELTPSNFNREVIQSDSLWLVEFYAPWCGHCQRLTPEWKKAATALKDVVKVGAVDADKHHSLGGQYGVQGFPTIKIFGSNKNRPEDYQGGRTGEAIVDAALSALRQLVKDRLGGRSGGYSSGKQGRSDSSSKKDVIELTDDSFDKNVLDSEDVWMVEFYAPWCGHCKNLEPEWAAAASEVKEQTKGKVKLAAVDATVNQVLASRYGIRGFPTIKIFQKGESPVDYDGGRTRSDIVSRALDLFSDNAPPPELLEIINEDIAKRTCEEHQLCVVAVLPHILDTGAAGRNSYLEVLLKLADKYKKKMWGWLWTEAGAQSELETALGIGGFGYPAMAAINARKMKFALLKGSFSEQGINEFLRELSFGRGSTAPVGGGAFPTIVEREPWDGRDGELPVEDDIDLSDVELDDLGKDEL | The order of the disulfide bond cleavage activity of the RBD of hCoV-229E from highest to lowest was PDI, ERp46, P5, Erp57, and ERp72. | The order of the disulfide bond cleavage activity of the RBD from highest to lowest was PDI, ERp46, P5, ERp72, and ERp57.

From patent publication US20260248897
